Target: Crotalus durissus terrificus venom
Experiment: ELISA on C.d.t. venom (5 µg/ml coat)

“preimmune IgY (chicken egg yolk) (antibody)” gave an absorbance at dilution 1:5 of less than 0 absorbance, an absorbance at dilution 1:25 of 0 absorbance and an absorbance at dilution 1:125 of 0.003 absorbance. The absorbance at dilution 1:625 was 0 absorbance, the absorbance at dilution 1:3125 was 0.002 absorbance and the absorbance, undiluted was 0.003 absorbance.

Source: US20050238665A1
